Experimental data as given in paper PMC4169324 (The FEBS journal, 2014).

B1: BcRsaM protein (product of bcam1869) from B. cenocepacia J2315, native (natural protein)
chain: SNAMTSPLLHPVPGPSPDGYVRLSEGALAALVLDHVASGLDPSLLAELRDNAIDARLAGYTEWHRTAGAGVAYVTVGWDWYLERATGTFVIAGGDVRSNVMAIDAKGADIGMLRTAAALAARLAALDWPAAVASALLGHNDAYHAGPTLQ
B2: SeMet-labeled BcRsaM protein from B. cenocepacia J2315 (natural protein)
chain: B1 chain
modifications: selenomethionine (SeMet-labeled; 70 mg/L SeMet in the culture for crystals X4)

Legend:
[1] = target: the molecule itself; assay: SEC
[2] = target: the molecule itself; assay: crystal structure

Protein	stoichiometry N [1]	binding result [2]
B1	2	
B2		binds
